Source: patent publication US7241873B2, “Recombinant anti-osteopontin antibody and use thereof” (Juridical Foundation the Chemo-sero-therapeutic Research …, priority 2001, dated 2007)
No end group written: not given here. *: point of attachment. Biotin = O=C1N[C@H]2[C@H](CS[C@H]2CCCCC(=O)*)N1

Legend:
[1] = molecular target: thrombin-cleaved OPN (human) (UniProt P10451); assay: cell-based or functional assay
CHO/OPN-a = molecular target: T1, CHO/OPN-a (human, UniProt P10451 17-314, sugar chain-bound type (glycosylated)); assay: Western blotting
T1 construct: mature; also called full-length OPN
T1 sequence (P10451 17-314): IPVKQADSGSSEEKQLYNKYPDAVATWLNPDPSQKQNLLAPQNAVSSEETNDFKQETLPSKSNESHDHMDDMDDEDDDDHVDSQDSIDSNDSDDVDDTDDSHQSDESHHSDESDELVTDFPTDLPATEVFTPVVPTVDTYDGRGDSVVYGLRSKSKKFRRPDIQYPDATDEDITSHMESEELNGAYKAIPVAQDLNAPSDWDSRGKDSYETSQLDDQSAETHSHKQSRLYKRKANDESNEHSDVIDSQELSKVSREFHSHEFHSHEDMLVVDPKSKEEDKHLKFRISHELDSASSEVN

GST-OPN-c = molecular target: T2, GST-OPN-c (human, UniProt P08515 1-218 = GST; P10451 1-287); assay: Western blotting
T2 construct: Isoform c of human osteopontin; made in E. coli; also called GST fusion protein of human osteopontin-c; not shown: vector-encoded junction between GST and OPN not described
T2 sequence (P08515 1-218, tags or fused parts left off): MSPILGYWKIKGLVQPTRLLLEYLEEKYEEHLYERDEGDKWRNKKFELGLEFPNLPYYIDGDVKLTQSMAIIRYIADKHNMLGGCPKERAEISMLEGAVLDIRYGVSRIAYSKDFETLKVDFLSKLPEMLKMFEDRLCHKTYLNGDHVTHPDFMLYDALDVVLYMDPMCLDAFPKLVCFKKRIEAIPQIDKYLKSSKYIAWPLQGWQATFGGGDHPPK

[2] = molecular target: T3, biotinylated partial peptide GRGDSVVYGLR of human osteopontin (human); assay: SPR BIACORE-2000, biotinylated peptide on sensor chip SA, antibody as analyte, global fitting 1:1 (Langmuir)
T3 construct: Captured on a BIACORE sensor chip SA (23 RU)
T3 peptide: Biotin-GRGDSVVYGLR
Procedure: The KD value of the chimera 2K1 antibody was assayed in the following manner. First, a partial peptide GRGDSV-VYGLR (residues 7–17 of SEQ ID NO: 1) of the human osteopontin was biotinylated with a biotinylation kit (Dojindo Corporate). A sensor chip SA was set on BIA-CORE-2000, to bind 23 RU of a ligand (Bin-GRGDSV-VYGLR)(residues 7–17 of SEQ ID NO: 1). […] The data of these sensor grams were analyzed by global fitting at 1:1 (Langmuir) binding by a BIACORE analysis software BIA Evaluation Version 3.0. FIG. 6a is a sensor gram at various concentrations of the murine 2K1 antibody. FIG. 6b is a sensor gram at various concentrations of the chimera 2K1 antibody.
As the results of the measurement, the KD value of the murine 2K1 antibody was 1.2 ×10^-10 M, while the KD value of the chimera 2K1 antibody was 9.2 ×10^-11 M. No reduction of the affinity of the chimera 2K1 antibody was observed due to the chimera preparation of the murine 2K1 antibody.

[3] = molecular target: T4, BSA-crosslinked osteopontin peptide BSA-CVDTYDGRGDSVVYGLRS (human, also: crosslinked to BSA, linkage chemistry not given here); assay: ELISA on a plate with BSA-CVDTYDGRGDSVVYGLRS, detection with protein A-HRP and TMB, OD450
T4 construct: Peptide carries an added N-terminal cysteine; immobilized on a microtiter plate as BSA conjugate; also called Peptide 1
T4 peptide: {BSA}-CVDTYDGRGDSVVYGLRS

bovine serum albumin = molecular target: T5, bovine serum albumin (bovine, UniProt P02769 25-607); assay: ELISA on a plate with BSA alone, detection with protein A-HRP and TMB, OD450
T5 construct: also called BSA
T5 sequence (P02769 25-607 limits assumed): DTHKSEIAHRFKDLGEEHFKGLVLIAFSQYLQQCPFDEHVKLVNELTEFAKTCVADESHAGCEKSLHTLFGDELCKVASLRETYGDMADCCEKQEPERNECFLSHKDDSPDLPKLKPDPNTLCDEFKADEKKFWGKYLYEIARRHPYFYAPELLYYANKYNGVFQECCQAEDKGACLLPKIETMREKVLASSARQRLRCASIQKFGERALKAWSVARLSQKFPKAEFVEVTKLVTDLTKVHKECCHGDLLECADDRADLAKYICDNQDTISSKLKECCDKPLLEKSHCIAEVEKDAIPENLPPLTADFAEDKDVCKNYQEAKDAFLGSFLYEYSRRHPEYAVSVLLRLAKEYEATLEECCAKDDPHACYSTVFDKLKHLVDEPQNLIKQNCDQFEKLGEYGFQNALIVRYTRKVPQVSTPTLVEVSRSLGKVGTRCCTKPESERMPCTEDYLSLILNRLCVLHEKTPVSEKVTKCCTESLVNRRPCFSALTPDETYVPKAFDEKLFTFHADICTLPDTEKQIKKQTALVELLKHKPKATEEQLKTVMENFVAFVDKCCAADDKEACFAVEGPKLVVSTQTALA

[4] = molecular target: BSA-crosslinked osteopontin peptide (BSA-CVDTYDGRGDSVVYGLRS) (Homo sapiens, UniProt P10451); assay: ELISA binding to osteopontin peptide
Description: Based on the concentrations of the humanized 2K1 antibody and the chimera 2K1 antibody as determined in Example 13, the binding activities of the humanized 2K1 antibody and the chimera 2K1 antibody with osteopontin peptide (CVDTYDGRGDSVVYGLRS) (SEQ ID NO: 1) were compared with reference to the ELISA of Kon et al. (Journal of Cellular […]: 420–432 (2002)).
Dilution series of the humanized 2K1 antibody and the chimera 2K1 antibody reacted on a microtiter plate with BSA-crosslinked osteopontin peptide (BSA-CVDTYDGRGDSVVYGLRS)(SEQ ID NO: 1) immobilized thereon. Then, the antibodies bound to BSA-CVDTYDGRGDSVVYGLRS (SEQ ID NO: 1) reacted with protein A-HRP, and finally with TMB (Dojindo Corporate), to measure the absorbance at a wavelength of 450 nm.
Additionally, reaction on a plate with only BSA immobilized thereon as a negative control was also measured in the same manner.
As a negative control, additionally, the binding activity of the chimera 2K1 antibody to BSA (open circle) and the binding activity of the humanized 2K1 antibody to BSA (open square) are also shown.

Chain of thrombin-cleaved OPN (human) (P10451 17-168 limits assumed, form in doubt, chain 1 of 2): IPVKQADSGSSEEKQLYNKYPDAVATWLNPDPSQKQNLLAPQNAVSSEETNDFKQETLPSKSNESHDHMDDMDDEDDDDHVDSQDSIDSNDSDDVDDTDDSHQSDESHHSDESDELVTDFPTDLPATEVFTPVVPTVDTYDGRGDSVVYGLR
Chain of thrombin-cleaved OPN (human) (P10451 169-314 limits assumed, form in doubt, chain 2 of 2): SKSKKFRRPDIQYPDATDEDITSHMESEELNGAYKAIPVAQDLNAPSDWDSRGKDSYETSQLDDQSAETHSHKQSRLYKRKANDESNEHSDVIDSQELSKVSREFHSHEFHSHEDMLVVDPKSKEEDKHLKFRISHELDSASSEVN

B1: murine monoclonal antibody 2K1 (antibody, V domains shown)
VH: QVQLQQSGAELVRPGASVKLSCKALGYTFTDYEMHWVKQTPVHGLEWIGAIHPGRGGTAYNQKFKGKATLTADKSSSTAYMELSSLTSEDSAVYYCTRITGYFDVWGAGTTVTVSS
VL: DVLMTQTPLSLPVSLGDQASISCRSSQSIVHSNGNTYLEWYLQKPGQSPKLLIYKVSNRFSGVPDRFSGSGSGTDFTLKISRVEAEDLGVYYCFQGSHVPLTFGAGTKLELKR
notes: also called murine 2K1 antibody; murine antibody 2K1
Mean migrating cell counts per 1 mm^3; monocyte; thrombin-cleaved OPN 10 µg/mL, murine 2K1 antibody 0.4 µg/mL (cells per 1 mm^3) [1]: 258
Mean migrating cell counts per 1 mm^3; monocyte; thrombin-cleaved OPN 10 µg/mL, murine 2K1 antibody 2 µg/mL (cells per 1 mm^3) [1]: 257
Mean migrating cell counts per 1 mm^3; monocyte; thrombin-cleaved OPN 10 µg/mL, murine 2K1 antibody 10 µg/mL (cells per 1 mm^3) [1]: 160
Mean migrating cell counts per 1 mm^3; monocyte; thrombin-cleaved OPN 10 µg/mL, murine 2K1 antibody 50 µg/mL (cells per 1 mm^3) [1]: 75
Mean migrating cell counts per 1 mm^3; neutrophil; thrombin-cleaved OPN 10 µg/mL, murine 2K1 antibody 0.4 µg/mL (cells per 1 mm^3) [1]: 567
Mean migrating cell counts per 1 mm^3; neutrophil; thrombin-cleaved OPN 10 µg/mL, murine 2K1 antibody 2 µg/mL (cells per 1 mm^3) [1]: 550
Mean migrating cell counts per 1 mm^3; neutrophil; thrombin-cleaved OPN 10 µg/mL, murine 2K1 antibody 10 µg/mL (cells per 1 mm^3) [1]: 450
Mean migrating cell counts per 1 mm^3; neutrophil; thrombin-cleaved OPN 10 µg/mL, murine 2K1 antibody 50 µg/mL (cells per 1 mm^3) [1]: 427
binding result (CHO/OPN-a): binds
binding result (GST-OPN-c): binds
Kd [2]: 0.12 nM

B2: mouse-human chimera 2K1 antibody (antibody, V domains shown)
VH: QVQLQQSGAELVRPGASVKLSCKALGYTFTDYEMHWVKQTPVHGLEWIGAIHPGRGGTAYNQKFKGKATLTADKSSSTAYMELSSLTSEDSAVYYCTRITGYFDVWGAGTTVTVSS
VL: DVLMTQTPLSLPVSLGDQASISCRSSQSIVHSNGNTYLEWYLQKPGQSPKLLIYKVSNRFSGVPDRFSGSGSGTDFTLKISRVEAEDLGVYYCFQGSHVPLTFGAGTKLELKR
notes: Expressed in CHO-DG44; also called C2K1 antibody; 2K1 chimera antibody
binding result [3]: binds
Kd [2]: 0.092 nM
binding result (bovine serum albumin): no binding (tested: 50 ng/ml)

B3: humanized 2K1 antibody (antibody, V domains shown)
VH: QVQLVQSGAEVKKPGSSVKVSCKASGGTFSDYEMHWVRQAPGQGLEWMGAIHPGRGGTAYNQKFKGRVTITADKSTSTAYMELSSLRSEDTAVYYCARITGYFDVWGQGTTVTVSS
VL: DVVMTQSPLSLPVTLGQPASISCRSSQSIVHSNGNTYLEWYLQKPGQSPQLLIYKVSNRFSGVPDRFSGSGSGTDFTLKISRVEAEDVGVYYCFQGSHVPLTFGQGTKLEIKR
notes: Human Igγ1 / Igκ constant regions (vectors AG-γ1 and AG-κ); Tested as CHO-DG44 culture supernatant; also called R2K1 antibody
binding result [3]: binds
binding result (bovine serum albumin): no binding (tested: 50 ng/ml)

B4: humanized 2K1 antibody: humanized antibody with CDRs of murine 2K1; VH SEQ ID NO: 28, VL SEQ ID NO: 30, human Igγ1/Igκ (antibody, V domains shown)
VH: MDWTWRVFCLLAVAPGAHSQVQLVQSGAEVKKPGSSVKVSCKASGGTFSDYEMHWVRQAPGQGLEWMGAIHPGRGGTAYNQKFKGRVTITADKSTSTAYMELSSLRSEDTAVYYCARITGYFDVWGQGTTVTVSS
VL: MGWSCIILFLVATATGVHSDVVMTQSPLSLPVTLGQPASISCRSSQSIVHSNGNTYLEWYLQKPGQSPQLLIYKVSNRFSGVPDRFSGSGSGTDFTLKISRVEAEDVGVYYCFQGSHVPLTFGQGTKLEIKR
modifications: human IgG1/kappa constant regions
antigen binding activity compared with the original murine 2K1 antibody [4]: identical to that of the original murine 2K1 antibody
binding activity to BSA-CVDTYDGRGDSVVYGLRS ([4]; ELISA, absorbance 450 nm, FIG. 13): had binding activities
binding activity to BSA (negative control plate) ([4]; ELISA, plate with only BSA immobilized): not to BSA
comparison of binding activities of both antibodies to BSA-CVDTYDGRGDSVVYGLRS ([4]; humanized versus chimera 2K1 antibody): at the same level
